{"source": "patent US20030007991A1", "about": "“Devices including protein matrix materials and methods of making and using thereof” (priority 1998, published 2003)", "tested_on": "xanthine oxidase", "test": "In vitro enzyme activity of xanthine oxidase in a protein matrix array piece (Sigma Enzymatic Assay of Superoxide Dismutase protocol, spectrophotometer)", "type": "biochemical", "settings": "absorbance measured at 550 mm, cytochrome C and other reactants, no enzyme activity produces 0.00000 change"}
{"substance": "xanthine oxidase", "values": [{"measurement": "enzyme activity of xanthine oxidase (change in absorbance)", "value": 0.0250, "unit": "delta absorbance/min"}]}
